According to patent US20180044391A1 (DEUTSCHES KREBSFORSCHUNGSZENTRUM, published 2018):

Molecular target: T1, CD19 (UniProt P15391 20-556, limits assumed)
T1 sequence (looked up): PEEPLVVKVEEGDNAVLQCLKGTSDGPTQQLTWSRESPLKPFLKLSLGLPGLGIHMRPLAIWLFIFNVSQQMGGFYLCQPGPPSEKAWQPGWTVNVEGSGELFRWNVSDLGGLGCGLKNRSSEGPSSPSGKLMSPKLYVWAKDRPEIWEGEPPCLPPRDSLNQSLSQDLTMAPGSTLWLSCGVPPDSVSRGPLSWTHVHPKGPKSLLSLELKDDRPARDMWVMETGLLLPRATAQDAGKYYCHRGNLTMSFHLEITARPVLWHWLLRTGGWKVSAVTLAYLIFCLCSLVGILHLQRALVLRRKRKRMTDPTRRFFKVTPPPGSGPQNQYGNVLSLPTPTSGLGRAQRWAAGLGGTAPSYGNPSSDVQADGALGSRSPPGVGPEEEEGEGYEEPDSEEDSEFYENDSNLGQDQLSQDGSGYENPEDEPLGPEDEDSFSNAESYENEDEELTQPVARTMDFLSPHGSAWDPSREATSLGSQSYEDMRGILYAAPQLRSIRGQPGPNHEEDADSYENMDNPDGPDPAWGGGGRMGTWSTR
Assay: cell-based or functional assay

B1: αCD19-SDIE (antibody, human IgG1, V domains shown)
VH: EVQLQQSGPELIKPGASVKMSCKASGYTFTSYVMHWVKQKPGQGLEWIGYINPYNDGTKYNEKFKGKATLTSDKSSSTAYMELSSLTSEDSAVYYCARGTYYYGSRVFDYWGQGTTLTVSS
VL: DIVMTQAAPSIPVTPGESVSISCRSSKSLLNSNGNTYLYWFLQRPGQSPQLLIYRMSNLASGVPDRFSGSGSGTAFTLRISRVEAEDVGVYYCMQHLEYPFTFGAGTKLELK
- inhibition of proliferation of NALM16 cells with PBMC (3H-thymidine uptake, 2 days): ~60%
